Tests used:
[1] = test system: T1, SF370.1 recombinase (Streptococcus pyogenes phage SF370.1); assay: cell_activity; settings: integration of attP (N3) plasmid at pseudo attB; 9 clones without recombinase; 35 of 100 rescued at this site
T1 sequence: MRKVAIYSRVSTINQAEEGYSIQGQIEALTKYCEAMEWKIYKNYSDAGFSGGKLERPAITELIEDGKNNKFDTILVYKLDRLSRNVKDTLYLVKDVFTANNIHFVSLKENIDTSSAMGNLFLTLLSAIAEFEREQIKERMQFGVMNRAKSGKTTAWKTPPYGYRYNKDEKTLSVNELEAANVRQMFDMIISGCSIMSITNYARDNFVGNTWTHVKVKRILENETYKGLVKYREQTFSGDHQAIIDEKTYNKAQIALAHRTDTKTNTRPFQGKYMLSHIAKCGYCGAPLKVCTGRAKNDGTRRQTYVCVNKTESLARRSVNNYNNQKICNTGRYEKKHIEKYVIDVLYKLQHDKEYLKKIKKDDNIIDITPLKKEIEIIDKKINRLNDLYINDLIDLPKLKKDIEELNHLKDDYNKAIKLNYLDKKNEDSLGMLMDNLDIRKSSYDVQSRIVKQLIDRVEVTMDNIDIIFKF

[2] = target: T2, SPβc2 recombinase (yokA) (Bacillus subtilis phage SPβc2) (UniProt O32006); assay: cell_activity; settings: integration of attP (N1) plasmid at pseudo attB; 0 clones without recombinase; 15 integrations at this site
T2 sequence: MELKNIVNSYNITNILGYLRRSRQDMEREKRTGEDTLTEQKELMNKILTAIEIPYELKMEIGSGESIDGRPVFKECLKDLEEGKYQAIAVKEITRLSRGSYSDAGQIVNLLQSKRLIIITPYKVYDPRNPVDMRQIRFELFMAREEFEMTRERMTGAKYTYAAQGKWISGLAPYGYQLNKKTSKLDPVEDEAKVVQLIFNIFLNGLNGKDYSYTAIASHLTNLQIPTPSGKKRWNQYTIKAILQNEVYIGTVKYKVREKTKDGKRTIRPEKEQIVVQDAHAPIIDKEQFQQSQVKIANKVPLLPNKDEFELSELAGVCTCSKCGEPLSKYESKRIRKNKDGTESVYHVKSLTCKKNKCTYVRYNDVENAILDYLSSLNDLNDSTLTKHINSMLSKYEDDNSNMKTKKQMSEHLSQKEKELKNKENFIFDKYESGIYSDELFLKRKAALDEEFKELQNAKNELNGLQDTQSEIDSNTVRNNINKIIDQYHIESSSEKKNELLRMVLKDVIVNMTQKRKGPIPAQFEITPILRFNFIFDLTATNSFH

| Substance | activity (hygromycinR clones) [1] | activity (hygromycinR clones) [2] |
| --- | --- | --- |
| SF370.1 human pseudo attB | > 100 |  |
| SPβc2 human pseudo attB |  | > 100 |

From patent publication US20060172377
